The results in this text go back to US20210188972A1 (A AND G PHARMACEUTICAL, published 2021).

The target in experiment [1] is T1, Human PTGFRN-ECD (extracellular domain; amino-acid 26 to amino-acid Y at 832), His-tag protein (human, UniProt Q9P2B2 26-832).
T1 construct: range 26-832; Expressed in Hek-293 cells, purified on a nickel column; also called recombinant PTGFRN; not shown: His-tag
T1 sequence (looked up): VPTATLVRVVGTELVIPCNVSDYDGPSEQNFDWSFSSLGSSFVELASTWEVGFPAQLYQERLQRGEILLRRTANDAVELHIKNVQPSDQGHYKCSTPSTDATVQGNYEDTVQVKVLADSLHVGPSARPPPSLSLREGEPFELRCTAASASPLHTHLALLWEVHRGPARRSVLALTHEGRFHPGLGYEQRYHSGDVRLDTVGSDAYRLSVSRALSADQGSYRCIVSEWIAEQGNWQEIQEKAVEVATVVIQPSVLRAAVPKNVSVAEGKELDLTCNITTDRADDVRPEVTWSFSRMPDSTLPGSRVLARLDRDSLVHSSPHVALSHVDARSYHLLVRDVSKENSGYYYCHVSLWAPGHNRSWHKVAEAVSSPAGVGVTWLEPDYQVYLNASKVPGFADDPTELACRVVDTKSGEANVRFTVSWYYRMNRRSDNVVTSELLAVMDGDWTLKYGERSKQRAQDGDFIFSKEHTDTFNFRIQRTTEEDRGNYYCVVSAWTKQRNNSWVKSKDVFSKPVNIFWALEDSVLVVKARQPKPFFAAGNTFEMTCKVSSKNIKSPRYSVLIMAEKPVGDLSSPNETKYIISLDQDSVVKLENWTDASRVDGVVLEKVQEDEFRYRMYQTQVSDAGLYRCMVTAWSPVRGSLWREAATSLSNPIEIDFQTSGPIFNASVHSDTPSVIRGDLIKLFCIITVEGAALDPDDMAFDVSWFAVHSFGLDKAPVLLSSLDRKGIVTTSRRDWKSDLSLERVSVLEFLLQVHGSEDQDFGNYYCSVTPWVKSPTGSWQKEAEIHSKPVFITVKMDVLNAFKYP
Description: BLI, Octet Red96, mAb on AMC sensor, PTGFRN-ECD 100 nM as analyte. (BLI is a label-free optical method that tracks binding on a fibre tip over time.)

The target of experiment [2] is T1, Human PTGFRN-ECD (extracellular domain; …). The experiment is described as follows: Octet Red96 pairing (binning matrix) on PTGFRN-ECD; capture Ab (1st loading Ab): 4F4.
For experiment [3] the target is unchanged. Description: Octet Red96 pairing (binning matrix) on PTGFRN-ECD; capture Ab (1st loading Ab): 9G8.
Experiment [4] has the same target. Description: Octet Red96 pairing (binning matrix) on PTGFRN-ECD; capture Ab (1st loading Ab): 9D8.
For experiment [5] the target is unchanged. Description: Octet Red96 pairing (binning matrix) on PTGFRN-ECD; capture Ab (1st loading Ab): 10D9.
The target is the same in experiment [6]. The experiment is described as follows: Octet Red96 pairing (binning matrix) on PTGFRN-ECD; capture Ab (1st loading Ab): 7B4.
Experiment [7] has the same target. Description: Octet Red96 pairing (binning matrix) on PTGFRN-ECD; capture Ab (1st loading Ab): 2B12.
The target is the same in experiment [8]. The experiment is described as follows: Octet Red96 pairing (binning matrix) on PTGFRN-ECD; capture Ab (1st loading Ab): 10E6.
For experiment [9] the target is unchanged. The experiment is described as follows: Octet Red96 pairing (binning matrix) on PTGFRN-ECD; capture Ab (1st loading Ab): 33B7.
The target is the same in experiment [10]. The experiment is described as follows: Octet Red96 pairing (binning matrix) on PTGFRN-ECD; capture Ab (1st loading Ab): 9A9.
Experiment [11] has the same target. Description: Octet Red96 pairing (binning matrix) on PTGFRN-ECD; capture Ab (1st loading Ab): 6F6.
Experiment [12] shares this target. The experiment is described as follows: Octet Red96 pairing (binning matrix) on PTGFRN-ECD; capture Ab (1st loading Ab): 1E2.

A word on the Kd: it is the constant that tells how readily two partners part at equilibrium. Broadly, the koff is a measure of how fast the partners let go of each other. Low readings indicate slow dissociation, high ones fast dissociation. As a reminder, the kon is the second-order rate constant of association.

Changes are numbered by the printed parent chain.

B1: 33B7 (antibody, V domains shown)
VH: DVQLQESGPGLVKPSQSLSLTCSVTGCSITSGYYWNWIRQFPGNKLEWMGYISHDGNNNYSPSLKNRISITRDTSKNQFFLKLNSVTTEDTATYYCARGFYYYGYFGYWGQGTTLTVSS
VL: DIVMSQSPSSLAVSVGEKVTMSCKSSQSLLYSTNQKNYLAWYQQKPGQSPKPLIYWASTRESGVPDRFTGSGSGTDFTLTISSVKAEDLAVYYCQQYYSYRTFGGGTKLEIKR
notes: Murine hybridoma monoclonal IgG (ATCC PTA-124281); also called AG02; AGO2
For the molecule B1, in [1], the Kd is 3090 pM, the Response is 0.245, the koff worked out at 0.000602 s⁻¹ and the kon came out at 195000 M⁻¹ s⁻¹. The same molecule had an Octet pairing response in [2] of 0.125.

B2: 1E2 (antibody, V domains shown)
VH: DVQLQESGPGLVKPSQSLSLTCSVTDYSITSGYYWNWIRQFPGNKLEWMGYISYDGSNNYNPSLKNRLSITRDTSKNQFFLKLNSVTPEDTATYYCARGWDYCFDYWGQGATLTVSS
VL: DIQMTQTTSSLSASLGDRVTISCSASQGISNYLNWYQQKPDGTVKLLIYYTSGLHSGVPSRFSGSGSGTDYSLTISNLEPEDIATYYCQQYSQLPWTFGGGTKLEIK
notes: Mouse hybridoma mAb
As for B2, in experiment [1], the Kd was less than 1 pM. Further, the Response in experiment [1] stood at 0.41. This molecule showed a koff in [1] of less than 1e-07 s⁻¹. Besides, the kon in experiment [1] is 63800 M⁻¹ s⁻¹. Also, the Octet pairing response in experiment [3] turned out to be 0.215; in experiment [4], 0.184; in experiment [5] it was 0.24; in [6] it was 0.157; in experiment [7], 0.23; in [8], 0.306. In addition, the values for the Octet pairing response in experiment [9] and in experiment [10] were 0.185 and 0.27, respectively.

B3: 3E10 (antibody, V domains shown)
VH: EVHLVESGGDLVKPGGSLKLSCAASGFTFSSYGMSWVRQTPDKRLEWVASISSGGSHTYYPDRVKGRFTISRDNAKNTLYLQMSSLKSEDTAMYYCARHPSYYGSSLYCFDYWGQGTTLTVSS
VL: B2 VL with S24R, G28D, G53R, Y71F, P80Q, I83V, Y87F, Y91G, Q93T
In turn, B3 yielded a Kd in experiment [1] of less than 1 pM. Further, in experiment [1], the Response amounted to 0.472. Further, the koff in experiment [1] is less than 1e-07 s⁻¹. In addition, in experiment [1], the kon stood at 120000 M⁻¹ s⁻¹. For the same molecule, the Octet pairing response is 0.124 in experiment [3]; 0.199 in experiment [4]; 0.0759 in experiment [11]; 0.219 in [5]; 0.12 in experiment [6]; 0.112 in experiment [2]. Also, the Octet pairing response is 0.251 in experiment [7], 0.305 in experiment [8], 0.252 in [9] and 0.224 in [10].

B4: 9A9 (antibody, V domains shown)
VH: QVQLQQSGPELVKPGASVKLSCKASGYTFTTYDINWVKQRPGQGLEWIGWLYPRDGNTNYNEKFKGKASLTVDTSSSTAYMELHSLTSEDSAVYFCARDYYGSTYGYFDYWGQGTTLTVSS
VL: DIQMTQSPASLSASVGGTVTITCRASEKIYSYLAWYQQKQGKSPQLLVYDANTLAQGVPSRFSGSGSGTQFSLKINSLQPEDFGSYYCQHHYVTPLTFGAGTKLALK
notes: Mouse hybridoma mAb
In [1], B4 had a Kd of less than 1 pM, a Response of 0.319, a koff of less than 1e-07 s⁻¹ and a kon of 151000 M⁻¹ s⁻¹. The molecule also showed an Octet pairing response in [6] of 0.162.

B5: 6F6 (antibody, V domains shown)
VH: QVQLQQSGAELVKPGASVKVSCKASGYTFTTYWMHWVKQRPGQGLEWIGRIHPSDSDTNYNQKFKGKATLTLDKSSSTAYMQLSSLTSEDSAVYYCAMSLYYTMDYWGQGTSVTVSS
VL: DIQMTQSPSSLSASLGGKVTITCKASQDIKKYIAWYQHKPGKGPRLLIHYTSTLQPGIPSRFSGSGSGRDYSFSISNLEPEDIATYYCLQYDNLLYTFGGGTKLEIK
notes: Mouse hybridoma mAb
In experiment [1], B5 showed a Kd of less than 1 pM. In [1], the Response turned out to be 0.335. Moreover, the koff in experiment [1] is less than 1e-07 s⁻¹. Moreover, the kon in experiment [1] came to 69100 M⁻¹ s⁻¹. For the same molecule, the Octet pairing response in experiment [3] was determined as 0.146; in experiment [4], 0.165; in [5], 0.191; in [6] it was 0.103; in experiment [2] it was 0.131; in experiment [7], 0.124. Further, the Octet pairing response in [12] is 0.232; in experiment [8] it was 0.255; in experiment [9] it was 0.126; in [10], 0.222.

B6: 10D9 (antibody, V domains shown)
VH: DVQLQESGPGLVKPSQSLSLTCSVTGCSITSGYDWNWIRQFPGNKLEWMGYINYDGNSNYIPSLKNRVSITRDTSKNQFFLKLNSVTTEDTATYYCARSDGYYWYFDVWGTGTTVTVSS
VL: DIKMTQSPSSMYASLGERVTITCKASQDIKSYLSWYQQKPWKSPKTLIYYATSLADGVPSRFSASGSGQDYSLTISSLESDDTATYYCLQHAERPLTFGAGTKLELK
notes: Mouse hybridoma mAb
In experiment [1], B6 gave a Kd of less than 1 pM. The molecule also yielded a Response in experiment [1] of 0.342. In experiment [1], this molecule yielded a koff of less than 1e-07 s⁻¹. For the same molecule, the kon in experiment [1] was 85600 M⁻¹ s⁻¹. The Octet pairing response in experiment [3] was 0.142; in experiment [4] it was 0.186; in experiment [11], 0.215; in experiment [6], 0.1; in experiment [7] it was 0.18; in experiment [12], 0.269. For the same molecule, the Octet pairing response in [8] amounted to 0.329; in experiment [9], 0.236; in experiment [10], 0.226.

B7: 2B12 (antibody, V domains shown)
VH: QVQLQQPGAELVKPGASVKMSCKASGYTFTSYWITWVKQGPGQGLEWIGDIYPGSGNTNYNEKFKSKATLTVDTSSSTAYMQLSSLTSEDSAVYYCARFFILTSYYFDYWGQGTTLTVSS
VL: GIVMTQSQKFMSTTVGDRVSITCKASQNVGTAVAWFQQKPGQSPKLLIYLASNRYTGVPDRFTGSGSGTDFTLTISNMQSEDLADYFCQQYSNYPLTFGAGTKLELK
notes: Mouse hybridoma mAb
B7: in experiment [1], the Kd is less than 1 pM. The Response in [1] is 0.272. The molecule further returned a koff in experiment [1] of less than 1e-07 s⁻¹. This molecule returned a kon in [1] of 48500 M⁻¹ s⁻¹. The Octet pairing response turned out to be 0.0926 in experiment [3]; 0.0857 in experiment [4]; 0.13 in experiment [11]; 0.111 in experiment [5]; 0.0818 in experiment [6]; 0.27 in [12]. Moreover, the Octet pairing response in [8] worked out at 0.157; in experiment [9], 0.132; in [10] it was 0.0744.
